Where only a bound is given, the exact number is not on record here.

The values below come from PMC11199686.

Test [1] addresses fibrin clots formed in human plasma (human (endogenous in plasma)) (UniProt P02679). Briefly: co-sedimentation; panel of 125I-labelled plasma proteins (25,000 cpm each) present while enhanced clots formed in plasma; 16 h, 37°C; clots washed three times in 10 mM HEPES, 70 mM NaCl, 0.5 mM EDTA, 5 M urea pH 7.4.
Test [2] concerns the target fibrin made from purified fibrinogen with thrombin (UniProt P02679). Description: radioligand binding; saturation: fixed 125I-factor H (250,000 cpm, 80 ng/well) mixed with unlabeled factor H (0-5,120 ng/well) on fibrin-coated wells; 30 min, 37°C.
Test [3] has the same target. Briefly: radioligand binding; inhibition: 125I-factor H (2 μg/well) premixed on ice with unlabeled factor H (0-30 μg/well) or ovalbumin, on fibrin-coated wells; 30 min, 37°C.
Test [4] deals with fibrin clots formed in human plasma (human (endogenous in plasma)) (UniProt P02679). Description: co-sedimentation; time course: enhanced clots formed in plasma with 125I-ligand (25,000 cpm), eight times from 0 to 960 min at 37°C; washed with HEPES-1/2-saline (non-denaturing).
Test [5] has the same target. Briefly: co-sedimentation; enhanced clots: as the plasma clots but with extra fibrinogen (2 mg/ml) added; 40 min, 37°C; 70 mM, 140 mM or 1 M salt; washed with reaction buffer (HEPES-1/2-saline at 70 mM).
Test [6] deals with fibrin made from purified fibrinogen with thrombin (UniProt P02679). Description: radioligand binding; 125I-ligand (100,000 cpm) on fibrin-coated wells in veronal buffer ([…] sodium barbital, […] CaCl2, 0.5 mM MgCl2, pH 7.4) with 20, 75 or 150 mM NaCl; 30 min, 37°C; washes at the same NaCl.
The target is the same in test [7]. Description: co-sedimentation; fibrin-only clots: 3.5 mg/ml purified fibrinogen with 125I-ligand (25,000 cpm) in 10 mM HEPES, 70 mM NaCl, 5 mM CaCl2 pH 7.4, clotted with thrombin (8.75 μg/ml), 40 min, 37°C; washed with HEPES-1/2-saline.
Test [8] deals with fibrin clots formed in human plasma (human (endogenous in plasma)) (UniProt P02679). Briefly: cross-linking; 125I-ligand (25,000 cpm) with 0.9% plasma and 20 μg fibrinogen in 50 μl HEPES-1/2-saline, 20 mM CaCl2, 16 h, 37°C; cross-linking by the FXIIIa of the plasma; washed clots on reducing SDS-PAGE (4-12%), autoradiography.
Test [9] has the same target. Description: ELISA; levels of endogenous factor H (captured on monoclonal MRCOX23) and C1q (captured on ovalbumin antigen-antibody complexes) in citrated plasma and in the serum from the same plasma; the loss on clotting is taken as binding to clots. (In an ELISA, binding on a coated surface is turned into a signal by an enzyme label.)
Test [10] has the same target. Description: co-sedimentation; time course: enhanced clots formed in plasma with 125I-ligand (25,000 cpm), eight times from 0 to 960 min at 37°C; washed three times with 10 mM HEPES, 70 mM NaCl, 0.5 mM EDTA, 5 M urea pH 7.4; what stays is judged covalently bound.
The target is the same in test [11]. Briefly: co-sedimentation; clots formed in 45% human plasma with 20 mM CaCl2 in the presence of 125I-ligand (25,000 cpm), 40 min, 37°C, at about 70 mM, 140 mM or 1 M salt; clots spun at 1,000 x g and washed three times in reaction buffer; bound = input minus cpm in supernatants.
The target in test [12] is fibrin made from purified fibrinogen with thrombin (UniProt P02679). Briefly: radioligand binding; serial dilutions of 125I-ligand from 500,000 cpm/well on fibrinogen-, fibrin- or BSA-coated Maxisorp wells; 30 min, 37°C; 25 mM HEPES-0.1% Tween 20 pH 7.4 (20 mM in the legend), without or with 5 mg/ml fluid-phase BSA; bound label eluted with 0.1 M NaOH; Scatchard plot.

UniProt P02679, sequence (P02679 whole entry, looked up): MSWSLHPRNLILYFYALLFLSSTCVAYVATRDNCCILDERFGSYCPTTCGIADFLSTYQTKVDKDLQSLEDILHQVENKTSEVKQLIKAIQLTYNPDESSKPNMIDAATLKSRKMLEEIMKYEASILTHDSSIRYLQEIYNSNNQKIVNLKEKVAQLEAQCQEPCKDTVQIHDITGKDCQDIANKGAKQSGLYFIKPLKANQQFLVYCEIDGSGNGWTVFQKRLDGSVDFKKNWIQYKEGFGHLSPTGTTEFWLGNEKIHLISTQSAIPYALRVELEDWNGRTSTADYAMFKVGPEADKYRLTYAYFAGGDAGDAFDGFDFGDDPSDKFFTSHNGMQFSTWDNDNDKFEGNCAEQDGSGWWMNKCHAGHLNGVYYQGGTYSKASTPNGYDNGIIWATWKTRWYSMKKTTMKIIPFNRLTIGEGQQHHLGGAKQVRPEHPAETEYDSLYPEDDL
factor H, sequence (P08603 19-1231): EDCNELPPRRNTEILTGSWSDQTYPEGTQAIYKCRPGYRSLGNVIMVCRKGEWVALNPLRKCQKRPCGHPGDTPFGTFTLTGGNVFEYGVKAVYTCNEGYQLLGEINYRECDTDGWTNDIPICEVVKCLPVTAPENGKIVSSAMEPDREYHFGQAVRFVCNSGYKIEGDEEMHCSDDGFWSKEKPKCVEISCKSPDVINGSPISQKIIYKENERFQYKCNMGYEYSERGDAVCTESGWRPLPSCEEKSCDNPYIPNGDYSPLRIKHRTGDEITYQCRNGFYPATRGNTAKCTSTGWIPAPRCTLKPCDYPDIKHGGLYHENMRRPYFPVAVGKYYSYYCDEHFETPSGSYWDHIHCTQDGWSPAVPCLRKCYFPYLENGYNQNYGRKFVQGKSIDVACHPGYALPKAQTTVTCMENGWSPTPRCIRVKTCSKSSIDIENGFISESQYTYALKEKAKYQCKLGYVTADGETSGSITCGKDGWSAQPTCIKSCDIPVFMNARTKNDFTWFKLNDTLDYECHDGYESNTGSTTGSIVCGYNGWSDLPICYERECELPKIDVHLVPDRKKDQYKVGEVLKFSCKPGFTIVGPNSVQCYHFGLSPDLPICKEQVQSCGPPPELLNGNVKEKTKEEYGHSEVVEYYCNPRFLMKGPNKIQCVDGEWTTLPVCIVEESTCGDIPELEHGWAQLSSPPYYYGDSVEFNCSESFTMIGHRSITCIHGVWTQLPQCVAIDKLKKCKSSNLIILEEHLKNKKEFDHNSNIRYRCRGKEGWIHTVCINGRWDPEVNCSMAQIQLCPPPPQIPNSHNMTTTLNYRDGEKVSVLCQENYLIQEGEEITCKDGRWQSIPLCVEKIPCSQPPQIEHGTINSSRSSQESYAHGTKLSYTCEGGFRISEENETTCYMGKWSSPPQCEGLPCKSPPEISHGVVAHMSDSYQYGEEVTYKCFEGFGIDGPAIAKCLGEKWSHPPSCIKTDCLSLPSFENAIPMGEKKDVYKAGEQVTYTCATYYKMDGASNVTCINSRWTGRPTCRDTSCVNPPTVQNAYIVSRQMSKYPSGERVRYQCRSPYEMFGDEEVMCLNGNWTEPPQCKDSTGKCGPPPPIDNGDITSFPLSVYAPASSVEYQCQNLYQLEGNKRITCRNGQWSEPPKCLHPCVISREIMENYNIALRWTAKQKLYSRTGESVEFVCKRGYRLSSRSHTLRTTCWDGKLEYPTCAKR

Take plasminogen (natural protein): in test [1], the Protein incorporated into fibrin clots (%) stood at 32.8% and the percent bound to fibrin clots came to 31%.
As for “factor H (from UniProt P08603 19-1231) (natural protein)”, the percent of input bound at saturation (input 3.5 μg/well) in test [2] came out at 0.1%. Also, the percent inhibition of the binding of 125I-factor H at an equal molar ratio of unlabeled to labeled factor H in [3] was found to be 48%. Further, in test [4], the percent bound at 30 min, non-denaturing wash was 22% and the percent bound at 96 min, non-denaturing wash worked out at 26%. In addition, in [5], the fold increase of percent bound, enhanced clots over plasma clots without added fibrinogen, at 140 mM NaCl was 6 fold and the percent bound to enhanced plasma clots (HEPES-1/2-saline wash) was found to be 21.5%. For the same substance, the binding at 75 mM NaCl relative to that at 20 mM NaCl in test [6] is below 50%. Further, in [1], the Protein incorporated into fibrin clots (%) came to 28.7% and the percent bound to fibrin clots was 30%. In test [7], this substance gave a percent bound to fibrin-only clots (HEPES-1/2-saline wash) of 19%. The percent of 125I-factor H in the large cross-linked aggregate that did not enter the gel in test [8] came out at 5.2%. In [9], this substance came in with a percent of the plasma level lost in the serum of the same plasma (healthy volunteer sample) of 38%. Also, in test [10], the percent bound at 30 min, after urea wash amounted to 13%; the percent bound at 96 min, after urea wash was 18%; the percent bound at 960 min, after urea wash was 32.5%. Moreover, in test [11], the percent bound to plasma clots at 70 mM salt was 21.5%. Moreover, in test [12], the Kd was determined as 0.055 nM and the percent of input bound (500,000 cpm/well) worked out at 1.7%.

What is called Kd is the constant that tells how readily two partners part at equilibrium. The low end stands for a tighter complex, the high end for a looser complex.
